Data as given in PMC6046605.
pKd: −log10 of the molar value. Values joined by “and” are separate entries in the source; they are usually repeats but may differ in a detail not shown here. Identical values can stand only once.

Experiments:
[1] = target: murine norovirus (MNV) RdRp L354D mutant (murine norovirus (MNV)); test: not stated; D331A and L354D RdRp by themselves, in the absence of VPg; told only in the discussion
[2] = target: murine norovirus (MNV) RdRp D331A mutant (murine norovirus (MNV)); test: SPR; Biacore2000; RdRp or mutant RdRp immobilised on a CM5 chip (amine coupling, sodium acetate pH 5.0); analyte in 20 mM Tris-HCl pH 8.0, 100 mM NaCl, 5 mM MgCl2; 1:1 Langmuir kinetics
[3] = target: murine norovirus (MNV) RdRp L354D mutant (murine norovirus (MNV)); test: as above
[4] = target: murine norovirus (MNV) RNA-dependent RNA polymerase (RdRp), native (murine norovirus (MNV)); test: as above
[5] = target: murine norovirus (MNV) RNA-dependent RNA polymerase (RdRp), native (murine norovirus (MNV)); test: as above; remark: listed apart in the source
[6] = target: murine norovirus (MNV) RNA-dependent RNA polymerase (RdRp), native (murine norovirus (MNV)); test: SPR; data not shown; immobilised RdRp; Biacore2000, 1:1 Langmuir kinetics
[7] = target: murine norovirus (MNV) RdRp D331A mutant (murine norovirus (MNV)); test: not stated; D331A and L354D RdRp by themselves, in the absence of VPg; told only in the discussion
[8] = target: murine norovirus (MNV) RNA-dependent RNA polymerase (RdRp), native (murine norovirus (MNV)); test: crystal structure; RdRp incubated with VPg at a molar ratio of 1:2 with UTP or GTP, oligo(A) or oligo(C), 2 mM MnCl2, 2 mM MgCl2; P21, six monomers in the asymmetric unit; 3.1 Å
[9] = target: murine norovirus (MNV) RNA-dependent RNA polymerase (RdRp), native (murine norovirus (MNV)); test: cross-linking; 0.001% glutaraldehyde, room temperature 6 min; 50 mM HEPES pH 7.4, 5 mM MgCl2, 5 mM DTT, 1 μM oligo(A)15, 2 μM RdRp, 6 μM VPg; SDS-PAGE and western blot with anti-RdRp or anti-VPg antisera
[10] = target: murine norovirus (MNV) RNA-dependent RNA polymerase (RdRp), native (murine norovirus (MNV)); test: negative-stain electron microscopy; RdRp alone, 1-6 μM protein, 1 h at room temperature, uranyl formate stain; 2D class averages compared with projections of the hexamer model

For “murine norovirus (MNV) RdRp L354D mutant (enzyme)”, the stoichiometry N [1] was 6.
Substance “murine norovirus (MNV) VPg(1-124), full length (natural protein)” has a pKd [2] of 7.64, a pKd [3] of 6.68 and a pKd [4] of 8.06. The pKd [5] was 8.05.
“murine norovirus (MNV) VPg(1-73) (domain or fragment)” gave a pKd [6] of 7.77.
Substance “murine norovirus (MNV) RdRp D331A mutant (enzyme)” has a stoichiometry N [7] of 6.
“murine norovirus (MNV) RNA-dependent RNA polymerase (RdRp), native (enzyme)” was tested, and the pKd [6] was 8.66, the stoichiometry N [8] was 6 and the stoichiometry N [9] was 2 and 3 and 6. The stoichiometry N [10] was 6.
